According to doi:10.1101/2021.11.02.467024 (bioRxiv, 2021):

Target: the molecule itself
Assay: cross-linking

B1: IMPDH1 (enzyme)
chain: not shown
  stoichiometry N: 4
